The source of these data is publication doi:10.1101/2024.10.29.620959v2.

Substrate in data set [1]: CCCCCCCCCCCC(=O)O
Nature of the data set: purified protein. Particulars: pH 7.5.

Substrate in data set [2]: CCCCCCCCCCCCCCCC(=O)O
As to the kind of experiment: purified protein. The settings on record: pH 7.5.

B1: FadD5 (Mycobacterium tuberculosis H37Rv) (protein)
chain: MTAQLASHLTRALTLAQQQPYLARRQNWVNQLERHAMMQPDAPALRFVGNTMTWADLRRRVAALAGALSGRGVGFGDRVMILMLNRTEFVESVLAANMIGAIAVPLNFRLTPTEIAVLVEDCVAHVMLTEAALAPVAIGVRNIQPLLSVIVVAGGSSQDSVFGYEDLLNEAGDVHEPVDIPNDSPALIMYTSGTTGRPKGAVLTHANLTGQAMTALYTSGANINSDVGFVGVPLFHIAGIGNMLTGLLLGLPTVIYPLGAFDPGQLLDVLEAEKVTGIFLVPAQWQAVCTEQQARPRDLRLRVLSWGAAPAPDALLRQMSATFPETQILAAFGQTEMSPVTCMLLGEDAIAKRGSVGRVIPTVAARVVDQNMNDVPVGEVGEIVYRAPTLMSCYWNNPEATAEAFAGGWFHSGDLVRMDSDGYVWVVDRKKDMIISGGENIYCAELENVLASHPDIAEVAVIGRADEKWGEVPIAVAAVTNDDLRIEDLGEFLTDRLARYKHPKALEIVDALPRNPAGKVLKTELRLRYGACVNVERRSASAGFTERRENRQKL
A word on the Km: it is the concentration of substrate that gives half-maximal velocity. As to B1, the figures for the Km in the data set “purified protein [1]” and in the data set “purified protein [2]” were 102 ± 8.55 µM and 89.83 ± 9.71 µM, respectively.
